Measured values from patent US20160031955A1 (INSERM INSTITUT NATIONAL DE LA SANT ET DE LA RECHERCHE M …, published 2016).

Target: T1, endogenous AIF (apoptosis inducing factor) contained in human cell lysates (human, UniProt O95831 55-613, limits assumed)
T1 construct: Endogenous protein in cell lysate; also called AIF contained in the lysate of U2OS cells
Experiment: co-immunoprecipitation from human cancer cell lysates

T1 sequence (O95831 55-613 limits assumed): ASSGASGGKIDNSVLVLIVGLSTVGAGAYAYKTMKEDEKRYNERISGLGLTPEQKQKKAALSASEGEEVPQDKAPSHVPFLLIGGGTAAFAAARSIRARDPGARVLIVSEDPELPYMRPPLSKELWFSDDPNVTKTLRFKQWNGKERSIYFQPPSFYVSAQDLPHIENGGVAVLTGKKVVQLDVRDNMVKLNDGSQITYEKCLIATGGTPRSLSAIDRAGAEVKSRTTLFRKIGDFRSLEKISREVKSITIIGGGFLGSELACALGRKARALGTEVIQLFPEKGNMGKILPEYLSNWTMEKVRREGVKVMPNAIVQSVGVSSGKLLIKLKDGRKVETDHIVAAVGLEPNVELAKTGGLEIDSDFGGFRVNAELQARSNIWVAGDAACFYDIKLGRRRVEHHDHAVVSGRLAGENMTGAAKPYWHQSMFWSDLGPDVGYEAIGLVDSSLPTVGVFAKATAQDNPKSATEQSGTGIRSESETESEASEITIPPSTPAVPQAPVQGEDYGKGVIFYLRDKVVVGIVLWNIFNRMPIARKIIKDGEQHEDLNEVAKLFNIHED

B1: CHCHD3 (other, human, UniProt Q9NX63 2-227, looked up)
chain: GGTTSTRRVTFEADENENITVVKGIRLSENVIDRMKESSPSGSKSQRYSGAYGASVSDEELKRRVAEELALEQAKKESEDQKRLKQAKELDRERAAANEQLTRAILRERICSEEERAKAKHLARQLEEKDRVLKKQDAFYKEQLARLEERSSEFYRVTTEQYQKAAEEVEAKFKRYESHPVCADLQAKILQCYRENTHQTLKCSALATQYMHCVNHAKQSMLEKGG
notes: also called a MIA40 family member
binding result: no binding
